The source of these data is publication PMC10984146.

Several values for one entry are separate records, joined by “and”; a condition that tells them apart may be missing. Equal values may be shown once. Read-outs that look alike come from different tables or passages of the source.

For assay [1], the target named is unclasped and untagged recombinant human integrin αVβ5 ectodomain (human) (UniProt P06756). In words: fluorescence polarisation. On the technique in general: Fluorescence polarisation rises when a labelled molecule tumbles more slowly, as on binding a larger partner.
Assay [2] deals with reconstituted αVβ5/Hsp90α complex (human) (UniProt P06756). In words: fluorescence polarisation.
Assay [3] concerns the target clasped and tagged recombinant human integrin αVβ5 ectodomain (human) (UniProt P06756). In words: BLI. For orientation: In BLI a coated tip is dipped into the sample, and binding shifts an interference pattern.
Assay [4] deals with A488-irisin-His (UniProt Q8NAU1). In words: fluorescence polarisation.
Assay [5] has the same target. In words: fluorescence polarisation. The source holds these as a separate data set.
The target of a further assay is A488-FN10 (human). In words: fluorescence polarisation.
A further assay concerns the target A488-irisin-bac (UniProt Q8NAU1). In words: fluorescence polarisation.
Assay [6] deals with A488-irisin-His (UniProt Q8NAU1). In words: MST.

As a reminder, the Kd is a measure of binding affinity in units of concentration. What is called stoichiometry N is a count of units in the complex or per binding partner.

Take “FN10 (human fibronectin 10th FNIII domain, untagged) (domain or fragment)”: the dissociation constant (Kd) in assay [1] was 239 nM. Consider “irisin-His (wild-type, glycosylated recombinant irisin from mammalian cells) (from UniProt Q8NAU1 1-191) (ligand)”, for which the Kd in assay [2] amounted to 52 nM; in assay [1], 35 nM; in assay [3] it was 212 nM.

Consider “irisin-bac (non-glycosylated irisin produced in bacteria) (from UniProt Q8NAU1 1-260) (ligand)”, for which the Kd in assay [1] is 294 nM and 299 nM.

On to “reconstituted αVβ5/Hsp90α complex (from UniProt P06756 32-991; P18084 24-717; P07900 1-732)”, for which the Kd in the assay with A488-irisin-His [4] was 31 nM; with A488-irisin-His [5], 37 nM. Consider “unclasped and untagged recombinant human integrin αVβ5 ectodomain (from UniProt P06756 32-991; P18084 24-717) (receptor)”, for which the Kd with A488-FN10 (human) came to 146 nM; with A488-irisin-His [5], 28 nM; with A488-irisin-bac it was 256 nM. The stoichiometry N in the assay with A488-irisin-His [6] amounted to 1. As for “unlabeled and untagged irisin (glycosylated, from mammalian cells) (from UniProt Q8NAU1 1-191) (ligand)”, the Kd in assay [2] came out at 50 nM. Substance “αVβ5 ectodomain mutant E304R (β5) (from UniProt P06756 32-991; P18084 24-717) (receptor)” showed a reduction of affinity for irisin compared to WT with A488-irisin-His [5] of 80%. In turn, “αVβ5 ectodomain mutant R218E (β5) (from UniProt P06756 32-991; P18084 24-717) (receptor)” had a reduction of affinity for irisin compared to WT in the assay with A488-irisin-His [5] above 90%.
